Reference: publication PMC9335243

Molecular target: T. laurifolia Δ6-18:0-ACP desaturase, N-11 truncation (Thunbergia laurifolia)
Test: crystal structure

“T. laurifolia Δ6-18:0-ACP desaturase, N-11 truncation (enzyme)” showed a stoichiometry N of 2.
